These results are taken from patent US20240299570A1 (CELGENE, published 2024).

This assay concerns the target T1, BCMA on BCMA-positive myeloma cell lines (NCI-H929, ARP-1, U266B1) (Homo sapiens (Human), UniProt Q02223 1-184).
T1 sequence: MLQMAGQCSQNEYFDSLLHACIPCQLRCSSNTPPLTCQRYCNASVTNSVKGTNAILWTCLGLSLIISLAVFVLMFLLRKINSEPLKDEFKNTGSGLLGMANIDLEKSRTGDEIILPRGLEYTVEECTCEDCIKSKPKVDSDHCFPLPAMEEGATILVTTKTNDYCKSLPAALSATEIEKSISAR
Briefly: cell-based or functional assay.

B1: Antibody 2265-F02 (antibody, V domains shown)
VH: EVQLVESGGGLVQPGGSLRLSCAASGFNISAPGIHWVRQAPGKGLEWVGFINPAGGYTDYADSVKGRFTISADTSKNTAYLQMNSLRAEDTAVYYCARDYIRQYWTYVLDYWGQGTLVTVSS
VL: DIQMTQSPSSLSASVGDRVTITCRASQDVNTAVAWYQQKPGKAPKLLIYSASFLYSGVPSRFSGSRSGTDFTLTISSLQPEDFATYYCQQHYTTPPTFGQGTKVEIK
With B1, the “ARP-1, Conjugate M 2° antibody cell killing, EC50” value amounted to 1.9 nM and the “U266B1, Conjugate M 2° antibody cell killing, EC50” value came to 0.9 nM.
